# Source: publication PMC9090332, “Reconstitution of surface lipoprotein translocation through the Slam translocon” (eLife, 2022)
# T1: E. coli Skp with N-terminal 6xHis tag, purified (E. coli, UniProt P0AEU7 21-161)
# T1 sequence (looked up): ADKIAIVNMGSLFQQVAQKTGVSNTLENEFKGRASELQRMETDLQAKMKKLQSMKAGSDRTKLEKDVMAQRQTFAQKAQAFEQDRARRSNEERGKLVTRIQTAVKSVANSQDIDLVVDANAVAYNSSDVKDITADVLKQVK
# Target: T1, E. coli Skp with N-terminal 6xHis tag, …
# Experiment: cell-based or functional assay
binder,measurement,value
"Moraxella catarrhalis transferrin binding protein B, C-terminal flag-tag (natural protein, lipidated (processed by Lgt, Lsp, and Lnt)) CGGSGGSNPPAPTPIPNASGSGNTGNTGNAGGTDNTANAGNTGGASSGTGSANTPEPKYQDVPTDKNEKEQVSPIQEPAMGYGMALSKINLHNRQDTPLDEKNIITLDGKKQVAEGKKSPLPFSLDVENKLLDGYIAKMDKADKNAIRRRIESENKAKPLSEAELAEKIKEAVRKSYEFQQVMTSLENKIFHSNDGTTKATTRDLQYVDYGYYLANDANYLTVKTDKPKLWNSGPVGGVFYNGSTTAKELPTQDAVKYKGHWDFMTDVANKGNRFSEVKGTRQAGWWYGASSKDEYNRLLTDEKNKPDGYNGEYGHSSEFTVNFKEKKLTGGLFSNLQDSHKQKVTKTKRYDIDANIHGNRFRGSAIASDKEKDSETKHPFTSDAKDRLEGGFYGPKGEELAGKFLTDDNKLFGVFGAKQESKADKTEAILDAYALGAFNKNDANTFTPFTKKQLDNFGNAKKLVLGSTVINLVSTDATKNEFTEDKPKSATNKAGETLMVNDKVSVKTYGYGRNFEYLKFGELSVGGSHSVFLQGERTATTGDKAVPTEGKAKYLGNWVGYITGTGTGKSFNEAQDIADFDIDFKNKTVNGKLTTKGRTDPVFNITGEISGNGWTGKASTAKADAGGYNIDSNGTNKSIVIRDADVTGGFYGPNATEMGGSFTHNTNDSKASVVFGTKRQEEVKP","protection of urea-unfolded purified TbpB from proteinase K with Skp (and LolA) added to empty liposomes, against SurA + Slam1 proteoliposomes (3.5% protection)",≤ 10%
